Test [1] concerns the target CREB-bZIP (bZIP domain of human CREB1, residues 277-339 of CREB-A) (human). Put plainly: stopped-flow intrinsic tyrosine fluorescence, urea refolding kinetics.
Test [2] deals with CREB-bZIP-L318V (human). Put plainly: stopped-flow fluorescence out-competition.
The target in test [3] is CREB-bZIP-L318V (human). Put plainly: other fluorescence titration.
Test [4] concerns the target CREB-bZIP-L332V (human). Put plainly: other fluorescence titration.

Broadly, the Kd is a measure of binding affinity in units of concentration. By koff is commonly meant a measure of how fast the partners let go of each other. A low value points to a long-lived complex. As usually defined, the kon is the rate constant with which the complex forms. A high value points to fast association. In test [1], “CREB-bZIP (bZIP domain of human CREB1, residues 277-339 of CREB-A) (domain or fragment)” displayed a Kd of 5.7 nM, a koff of 0.029 s⁻¹ and an on-rate (kon) of 1e+07 M⁻¹ s⁻¹.

For CREB-bZIP-L318V (domain or fragment), in test [2], the k+,M-M.CRE (association of a monomer with CRE-bound monomer, inferred) is 5 nM⁻¹ s⁻¹ and the k-,M-M.CRE (dissociation of a monomer from the CRE-bound dimer) was found to be 0.079 s⁻¹. The substance further returned a fold increase of Kd,M-M against CREB-bZIP in test [3] of 1000 fold.

CREB-bZIP-L332V (domain or fragment): the fold increase of Kd,M-M against CREB-bZIP in test [4] worked out at 100 fold.

For the origin of these results see doi:10.1101/2025.08.25.672131.
